Molecular target: GST-BpfD-In (BpfD intracellular domains) (Shewanella putrefaciens CN32)
Experiment: MST

Kd: 4.9 µM
B1: His6-CRP (natural protein)
chain: MALIGKPKPDPTLEWFLSHCHIHKYPAKSTLIHAGEDSDTLYYIVKGSVAVLIKDEEGKEMILSYLNQGDFIGELGLFEEQAERTAWVRAKQACEIAEISYKKFKQLIQVNPEILMKLSAQMAYRLQSTSQKVGNLAFLDVAGRIAQTLLHLAKQPDAMTHPDGMQIKITRQEIGQIVGCSRETVGRILKMLEEQNLIQAHGKTIVVYGTR
modifications: labeled with NHS NT-647 dye (in the MST assay only)

— publication PMC8938473 (2022)
